Assay results from PMC10312975 (Research Square, 2023).
Changes are numbered by the printed parent chain. Numbers in names are those of the source.

B1: CCDC93 DBD (305-433), untagged (domain or fragment, human, UniProt Q567U6 305-433, looked up)
chain: SPEKLGTSQLHRRKVISLNKQIAQKTKHLEELRASHTSLQARYNEAKKTLTELKTYSEKLDKEQAALEKIESKADPSILQNLRALVAMNENLKSQEQEFKAHCREEMTRLQQEIENLKAERAPRGDEKT
notes: CCDC93, human, DBD; source: E. coli BL21 (DE3) T1R, purified, MBP removed with TEV; not shown: MBP, N-terminal, cleaved
B2: MBP-CCDC93 (305-433) (domain or fragment, human, UniProt Q567U6 305-433, looked up)
chain: B1 chain
notes: CCDC93, human, DBD; also called MBP-CCDC93 DBD; source: E. coli BL21 (DE3) T1R, purified (amylose); not shown: MBP, N-terminal, kept
B3: CCDC22 DBD (280-446), untagged (domain or fragment, human, UniProt O60826 280-446, looked up)
chain: GAGAKTGAPKGSRFTHSEKFTFHLEPQAQATQVSDVPATSRRPEQVTWAAQEQELESLREQLEGVNRSIEEVEADMKTLGVSFVQAESECRHSKLSTAEREQALRLKSRAVELLPDGTANLAKLQLVVENSAQRVIHLAGQWEKHRVPLLAEYRHLRKLQDCRELES
notes: CCDC22, human, DBD; source: E. coli BL21 (DE3) T1R, purified, MBP removed with TEV; not shown: MBP, N-terminal, cleaved
B4: MBP-tagged CCDC22-CCDC93 DBD dimer, CCDC93 E410R (complex, human)
chain 1: B3 chain
chain 2: B1 chain with E106R
notes: CCDC22, human, DBD; CCDC93, human, DBD; source: E. coli BL21 (DE3) T1R, purified; not shown: MBP, N-terminal, kept
B5: MBP-tagged CCDC22-CCDC93 DBD dimer (complex, human)
chain 1: B3 chain
chain 2: B1 chain
notes: CCDC22, human, DBD (CC1, CC2a); CCDC93, human, DBD (CC1, CC2a); also called DBD heterodimer; source: E. coli BL21 (DE3) T1R, purified (amylose, mixed about 1:1, Source 15Q, Superdex 200); not shown: MBP, N-terminal, kept

How the values were obtained:
Conditions in all cases: both partners purified
[1] = target: T1, DENND10, full length, His6 tag removed (human, UniProt Q8TCE6 1-357); experiment: SEC; untagged DBD dimer and DENND10, alone and mixed; Superdex 200, 100 mM NaCl, 10 mM HEPES pH 7.0, 5% glycerol, 1 mM DTT; SDS-PAGE of fractions
T1 construct: DENND10 (FAM45A), human, codon-optimised gene; source: E. coli BL21 (DE3) T1R, purified (Source 15Q, TEV cleavage, Source 15Q); not shown: His6, N-terminal, cleaved
T1 sequence (Q8TCE6 whole entry): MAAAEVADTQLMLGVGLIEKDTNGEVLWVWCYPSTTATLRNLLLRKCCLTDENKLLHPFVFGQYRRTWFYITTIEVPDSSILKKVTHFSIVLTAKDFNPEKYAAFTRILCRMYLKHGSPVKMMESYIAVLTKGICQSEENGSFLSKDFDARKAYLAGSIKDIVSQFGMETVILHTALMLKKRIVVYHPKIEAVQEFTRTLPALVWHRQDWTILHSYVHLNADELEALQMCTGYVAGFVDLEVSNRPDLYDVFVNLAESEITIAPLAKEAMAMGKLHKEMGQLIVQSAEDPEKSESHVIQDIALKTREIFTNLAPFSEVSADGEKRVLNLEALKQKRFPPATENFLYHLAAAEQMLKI

[2] = target: B3; experiment: as above
MBP-CCDC22 (280-446) = target: T2, MBP-CCDC22 (280-446) (human, UniProt O60826 280-446); experiment: reconstitution by mixing and co-purification; amylose-purified MBP-tagged CCDC22 and CCDC93 fragments mixed about 1:1, overnight at 4 °C, then Source 15Q and Superdex 200
T2 construct: CCDC22, human, DBD; also called MBP-CCDC22 DBD; source: E. coli BL21 (DE3) T1R, purified (amylose); not shown: MBP, N-terminal, kept

[3] = target: T3, His6-Tev-DENND10, full length (pull-down prey) (human, UniProt Q8TCE6 1-357); experiment: pull-down; MBP-tagged DBD dimer (200 pmol) as bait on amylose beads, DENND10 (500 pmol) as prey; 10 mM HEPES pH 7, 150 mM NaCl, 5% glycerol, 0.05% Triton X-100, 5 mM beta-mercaptoethanol, 4 °C, 30 min; Coomassie
T3 construct: DENND10 (FAM45A), human, codon-optimised gene; source: E. coli BL21 (DE3) T1R, purified (Ni-NTA, Source 15Q, Superdex Increase 200)
T3 sequence (Q8TCE6 whole entry): as above

| Binder | binding result [1] | binding result [3] | other results |
| --- | --- | --- | --- |
| B1 | binds |  | binding result [2]: binds |
| B2 |  |  | binding result (MBP-CCDC22 (280-446)): binds |
| B3 | binds |  |  |
| B4 |  | binds |  |
| B5 |  | binds |  |
